A word on the Kd: it is the concentration at which binding is half-saturated. Low values mean tighter binding, high ones weaker binding.

The test deals with 145-Tailless nucleosome (145 bp Widom 601 DNA with tailless histone mutants H4-del 1-20, H3-del 1-37, H2A-del 1-15 and H2B-del 1-31), P06897. The test is described as follows: native gel or EMSA; FAM-labelled nucleosome (0.8 pmol; oligonucleosomes 0.1 pmol) mixed with different amounts of cGAS in 20 mM Tris-HCl pH 7.6, 60 mM NaCl, 5 mM MgCl2, total volume 10 ul; on ice 30 min; 1.5% agarose gel, 0.2x TBE; Kd from percent bound nucleosome against cGAS concentration. The settings on record: remark: other sources report otherwise. Background: A gel shift assay detects complexes by their altered migration in electrophoresis.

B1: human cGAS (cGMP-AMP synthase), Q8N884 1-522 (enzyme)
chain: MQPWHGKAMQRASEAGATAPKASARNARGAPMDPTESPAAPEAALPKAGKFGPARKSGSRQKKSAPDTQERPPVRATGARAKKAPQRAQDTQPSDATSAPGAEGLEPPAAREPALSRAGSCRQRGARCSTKPRPPPGPWDVPSPGLPVSAPILVRRDAAPGASKLRAVLEKLKLSRDDISTAAGMVKGVVDHLLLRLKCDSAFRGVGLLNTGSYYEHVKISAPNEFDVMFKLEVPRIQLEEYSNTRAYYFVKFKRNPKENPLSQFLEGEILSASKMLSKFRKIIKEEINDIKDTDVIMKRKRGGSPAVTLLISEKISVDITLALESKSSWPASTQEGLRIQNWLSAKVRKQLRLKPFYLVPKHAKEGNGFQEETWRLSFSHIEKEILNNHGKSKTCCENKEEKCCRKDCLKLMKYLLEQLKERFKDKKHLDKFSSYHVKTAFFHVCTQNPQDSQWDRKDLGLCFDNCVTYFLQCLRTEKLENYFIPEFNLFSSNLIDKRSKEFLTKQIEYERNNEFPVFDEF
B1 yielded a Kd of 79 nM.
